Data: patent US20020164759A1 (UNIVERSITY OF GEORGIA RESEARCH FOUNDATION, published 2002)

Key:
[1] = target: Porphyromonas gingivalis dipeptidylpeptidase-7 (DPP-7), purified from strain HG66 (Porphyromonas gingivalis) (UniProt B2RKV3); test: cell-based or functional assay
[2] = target: T1, Ile-Ala-Arg-Arg-His-Pro-Tyr-Phe-Leu (SEQ ID NO:11)
T1 chain: IARRHPYFL

[3] = target: T2, Ser-Pro-Tyr-Ser-Ser-Glu-Thr-Thr (SEQ ID NO:15)
T2 chain: SPYSSETT

[4] = target: T3, Gln-Lys-Gln-Met-Ser-Asp-Arg-Arg-Glu (SEQ ID NO:17)
T3 chain: QKQMSDRRE

[5] = target: carboxymethylated lysosyme
[6] = target: T4, Ala-Pro-Val-Arg-Ser-Leu (SEQ ID NO:16)
T4 chain: APVRSL

[7] = target: T5, Trp-His-Trp-Leu-Glu-Leu-Lys-Pro-Gly-Glu-Pro-Met-Tyr (SEQ ID NO:14)
T5 chain: WHWLELKPGEPMY

[8] = target: T6, Phe-Leu-Arg-Glu-Pro-Val-Ile-Phe-Leu (SEQ ID NO:13)
T6 chain: FLREPVIFL

[9] = target: T7, Trp-Ala-Gly-Gly-Asp-Ala-Ser-Gly-Glu (SEQ ID NO:10)
T7 chain: WAGGDASGE

[10] = target: T8, Lys-Ile-Ala-Gly-Tyr-His-Leu-Glu-Leu (SEQ ID NO:12)
T8 chain: KIAGYHLEL

[11] = target: T9, Porphyromonas gingivalis dipeptidylpeptidase-7 (DPP-7), purified from strain HG66 (Porphyromonas gingivalis, UniProt B2RKV3 24-712); test: cell-based or functional assay
T9 sequence: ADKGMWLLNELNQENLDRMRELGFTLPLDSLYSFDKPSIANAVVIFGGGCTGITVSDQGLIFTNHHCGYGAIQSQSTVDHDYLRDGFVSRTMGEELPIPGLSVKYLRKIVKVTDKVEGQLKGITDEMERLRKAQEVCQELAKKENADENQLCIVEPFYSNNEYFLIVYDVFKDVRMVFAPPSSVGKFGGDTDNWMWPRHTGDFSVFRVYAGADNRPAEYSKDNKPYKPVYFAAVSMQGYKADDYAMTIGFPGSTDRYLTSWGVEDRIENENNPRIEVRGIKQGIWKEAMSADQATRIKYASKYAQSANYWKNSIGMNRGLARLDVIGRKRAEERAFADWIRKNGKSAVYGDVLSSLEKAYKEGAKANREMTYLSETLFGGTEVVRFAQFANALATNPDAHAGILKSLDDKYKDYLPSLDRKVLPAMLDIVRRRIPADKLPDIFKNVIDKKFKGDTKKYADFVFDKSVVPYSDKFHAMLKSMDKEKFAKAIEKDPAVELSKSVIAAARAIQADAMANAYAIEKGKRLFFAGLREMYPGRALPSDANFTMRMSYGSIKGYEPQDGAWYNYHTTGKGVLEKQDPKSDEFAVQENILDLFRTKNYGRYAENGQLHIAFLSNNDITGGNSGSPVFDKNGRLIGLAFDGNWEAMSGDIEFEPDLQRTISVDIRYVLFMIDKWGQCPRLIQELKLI

Aprotinin (from UniProt P00974 36-93)
% of residual activity of DPP-7 against H-Ala-Phe-pNA after preincubation with 0.5 mg/ml inhibitor [1]: 128%

B1: Porphyromonas gingivalis dipeptidylpeptidase-7 (DPP-7), purified from strain HG66 (protein)
chain: ADKGMWLLNELNQENLDRMRELGFTLPLDSLYSFDKPSIANAVVIFGGGCTGITVSDQGLIFTNHHCGYGAIQSQSTVDHDYLRDGFVSRTMGEELPIPGLSVKYLRKIVKVTDKVEGQLKGITDEMERLRKAQEVCQELAKKENADENQLCIVEPFYSNNEYFLIVYDVFKDVRMVFAPPSSVGKFGGDTDNWMWPRHTGDFSVFRVYAGADNRPAEYSKDNKPYKPVYFAAVSMQGYKADDYAMTIGFPGSTDRYLTSWGVEDRIENENNPRIEVRGIKQGIWKEAMSADQATRIKYASKYAQSANYWKNSIGMNRGLARLDVIGRKRAEERAFADWIRKNGKSAVYGDVLSSLEKAYKEGAKANREMTYLSETLFGGTEVVRFAQFANALATNPDAHAGILKSLDDKYKDYLPSLDRKVLPAMLDIVRRRIPADKLPDIFKNVIDKKFKGDTKKYADFVFDKSVVPYSDKFHAMLKSMDKEKFAKAIEKDPAVELSKSVIAAARAIQADAMANAYAIEKGKRLFFAGLREMYPGRALPSDANFTMRMSYGSIKGYEPQDGAWYNYHTTGKGVLEKQDPKSDEFAVQENILDLFRTKNYGRYAENGQLHIAFLSNNDITGGNSGSPVFDKNGRLIGLAFDGNWEAMSGDIEFEPDLQRTISVDIRYVLFMIDKWGQCPRLIQELKLI
Peptides cleaved (hydrolysis products separated by reverse-phase HPLC, mass spectrometry) [2]: Ile-Ala-↓-Arg-Arg-His-Pro-Tyr-Phe-Leu | endopeptidase activity (insulin β chain): did not show any endopeptidase activity | Peptides not cleaved (reverse-phase HPLC, mass spectrometry) [3]: Peptides not cleaved | Peptides not cleaved (reverse-phase HPLC, mass spectrometry) [4]: Peptides not cleaved | endopeptidase activity [5]: did not show any endopeptidase activity | Peptides not cleaved (reverse-phase HPLC, mass spectrometry) [6]: Peptides not cleaved | Peptides not cleaved (reverse-phase HPLC, mass spectrometry) [7]: Peptides not cleaved | endopeptidase activity (azocazein): did not show any endopeptidase activity | Peptides cleaved (hydrolysis products separated by reverse-phase HPLC, mass spectrometry) [8]: Phe-Leu-↓-Arg-Glu-Pro-Val-Ile-Phe-Leu | Peptides cleaved (hydrolysis products separated by reverse-phase HPLC, mass spectrometry) [9]: Trp-Ala-↓-Gly-Gly-Asp-Ala-Ser-Gly-Glu | endopeptidase activity (type I collagen): did not show any endopeptidase activity | endopeptidase activity (gelatin): did not show any endopeptidase activity | Peptides cleaved (hydrolysis products separated by reverse-phase HPLC, mass spectrometry) [10]: Lys-Ile-↓-Ala-Gly-Tyr-His-Leu-Glu-Leu

GA [Gly-Ala]
% of residual activity of DPP-7 against H-Ala-Phe-pNA after preincubation with 100 mM compound [11]: 102%

RF [Arg-Phe]
% of residual activity of DPP-7 against H-Ala-Phe-pNA after preincubation with 100 mM compound [11]: 69%

AG [Ala-Gly]
% of residual activity of DPP-7 against H-Ala-Phe-pNA after preincubation with 100 mM compound [11]: 96%
